The target in experiment [1] is mouse GPC3 on SK-HEP-1-muGPC3 cells (mouse) (UniProt Q8CFZ4). The experiment in a line: flow cytometry on SK-HEP-1-muGPC3 cells, PE anti-mouse IgG Fc.
For experiment [2], the target named is human GPC3 on SK-HEP-1-huGPC3 cells (human) (UniProt P51654). The experiment in a line: flow cytometry on SK-HEP-1-huGPC3 cells, PE anti-mouse IgG Fc. (In general: In flow cytometry, cells or beads pass a laser one at a time.)
For experiment [3], the target named is cynomolgus monkey GPC3 on SK-HEP-1-cmGPC3 cells (cynomolgus monkey). As to the kind of experiment: flow cytometry on SK-HEP-1-cmGPC3 cells, PE anti-mouse IgG Fc.

mouse GPC3 on SK-HEP-1-muGPC3 cells (mouse), sequence (Q8CFZ4 25-553 limits assumed): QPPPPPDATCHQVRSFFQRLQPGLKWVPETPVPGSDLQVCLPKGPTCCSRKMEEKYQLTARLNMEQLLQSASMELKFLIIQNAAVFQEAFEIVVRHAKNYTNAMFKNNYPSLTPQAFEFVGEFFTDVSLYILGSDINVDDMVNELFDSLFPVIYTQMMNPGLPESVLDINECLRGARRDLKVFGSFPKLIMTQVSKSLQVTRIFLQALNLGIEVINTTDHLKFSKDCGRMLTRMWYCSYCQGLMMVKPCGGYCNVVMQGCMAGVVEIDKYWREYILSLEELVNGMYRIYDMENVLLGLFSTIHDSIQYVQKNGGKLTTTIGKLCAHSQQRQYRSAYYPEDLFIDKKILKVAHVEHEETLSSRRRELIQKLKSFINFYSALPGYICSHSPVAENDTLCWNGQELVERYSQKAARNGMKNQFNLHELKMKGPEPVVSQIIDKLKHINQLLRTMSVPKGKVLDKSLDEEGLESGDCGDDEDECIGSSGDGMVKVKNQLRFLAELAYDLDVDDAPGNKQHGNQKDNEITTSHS

With ISOTYPE (antibody), the values for the Positive population, % in experiment [1], in experiment [2] and in experiment [3] were 0.91%, 0.85% and 0.43%, respectively.

Source of the values: patent US20230088461A1.
